Source: patent US20220119517A1 (NANJING SANHOME PHARMACEUTICAL, published 2022)
Where two headings read alike, the source gives them in different places.

Legend:
[1] = target: T1, human Claudin18.2 (CLDN18.2), full length, on cells (human); test: FACS on NUGC4 cells
T1 construct: also called CLDN18.2-FL; HEK293-CLDN18.2 cells
Method: (§1) The effect of the Fc-mutated humanized antibody on the binding to the target CLDN18.2 was identified by FACS. NUGC4 cells were digested using the gastric cancer cell digestion solution at 37° C. for 15 minutes; terminated by the complete culture medium, centrifuged at 1000 rpm for 5 minutes, the supernatant was discarded; the cells were resuspended with 2% fetal bovine serum-PBS diluent, the cells were adjusted to 1×10⁶ cells/ml, 100 μl of cell suspension was added to each well of the 96-well U-shaped-bottom plate; the antibody was diluted with 2% fetal bovine serum-PBS to final concentrations of 5 μg/ml, 1 μg/ml, 0.2 μg/ml, 0.04 μg/ml and 0.008 μg/ml, mixed with the cells in equal volume, incubated at 4° C. for 1 hour; centrifuged at 1000 rpm for 5 minutes, the supernatant was discarded; 200 μl of Cell Stain Buffer (Biolegend) was added to each well to wash twice, centrifuged at 1000 rpm for 5 minutes at each time and the supernatant was discarded; 100 μl of PE-anti human Fc antibody (Biolegend) was added, incubated at 4° C. for 1 hour; washed twice using Cell Stain Buffer (Biolegend), centrifuged at 1000 rpm for 5 minutes at each time and the supernatant was discarded. 300 μl of Cell Stain Buffer was added to resuspend the cells, detected with BD FACS Jazz flow analyzer.

[2] = target: T1, human Claudin18.2 (CLDN18.2), full …; test: FACS on NUGC4 cells, positive rate
Method: as §1

[3] = target: T1, human Claudin18.2 (CLDN18.2), full …; test: cell-based or functional assay
[4] = target: T1, human Claudin18.2 (CLDN18.2), full …; test: cell-based or functional assay; remark: listed apart in the source
[5] = target: T1, human Claudin18.2 (CLDN18.2), full …; test: cellular ELISA on fixed HEK293-CLDN18.2 cells
Method: HEK293-CLDN18.1 and HEK293-CLDN18.2 cells were resuscitated two weeks in advance, cultured with DMEM complete culture medium containing 10% fetal bovine serum at 37° C., 5% CO₂. When the cells grew to 80%-90% confluency, they were digested with 0.5 mM EDTA-PBS (Sigma) at room temperature, centrifuged at 1000 rpm for 5 minutes, the supernatant was discarded. Cells were resuspended in DMEM complete culture medium, the cell concentration was adjusted to 6×10⁵ cells/ml. Cells were plated on 96-well cell plates (Corning) pre-coated with polylysine at 2.5 μg/well, 100 μl per well, incubated at 37° C., 5% CO₂ for 24 hours, making cells evenly and completely plated on the bottom of the well. The supernatant was aspirated, and the cells were fixed with 4% paraformaldehyde at room temperature for 20 minutes, washed 3 times with 200 μl PBS, 2 minutes at each time. The well plates were blocked with 200 μl of 3% BSA-PBS at 37° C. for 1 hour. Each chimeric antibody was diluted with 3% BSA-PBS to a concentration of 6 μg/ml, and diluted in a 6-fold gradient to a total of 7 concentrations. At the same time, IMAB362-similar-hG1 diluted in the same concentration gradient as the positive control, and human IgG1, kappa isotype control antibody (hereinafter referred to as Isotype, provided by CrownBio (Taicang) Co., Ltd.) as the negative control were added to HEK293-CLDN18.2 and HEK293-CLDN18.1 cell plates, respectively. The cells were incubated at 37° C. for 1 hour, washed 5 times with PBS. Incubation with HRP-anti human IgG (Jackson) diluted 1:10000 in blocking solution was performed at 37° C. for 1 hour followed by washing 5 times with PBS. 100 μl of TMB one-component color developing solution was added, protected from light at room temperature for 5-10 minutes, terminated with 50 μl of 2M sulfuric acid, OD450 was read on the microplate reader. Data processing: the original data was put into GraphPad 5.0 software for plotting and calculation.

[6] = target: T2, human Claudin18.1 (CLDN18.1), full length, on cells (human, UniProt P56856 1-261); test: FACS on CHO-K1-CLDN18.1 cells, PE-anti human Fc, MFI
T2 construct: HEK293-CLDN18.1 cells carry a fusion with green fluorescent protein (ZsGreen); CHO-K1-CLDN18.1 cells carry pcDNA3.1-CLDN18.1; The cell line is named under assay; also called CLDN18.1-FL; HEK293-CLDN18.1 cells
Method: (§2) CHO-K1-CLDN18.2 cells and CHO-K1-CLDN18.1 cells (prepared in Example 5) were digested with gastric cancer cell digestion solution at 37° C. for 15 minutes, respectively; terminated with complete culture medium, centrifuged at 1000 rpm for 5 minutes, the supernatant was discarded; the cells were resuspended with 2% fetal bovine serum-PBS diluent, the cells were adjusted to 1×10⁶ cells/ml, 100 μl of cell suspension was added to each well of the 96-well U-shaped-bottom plate; 2% fetal bovine serum-PBS was used to dilute the humanized antibody and the control antibody to final concentrations of 10 μg/ml, 2 μg/ml, 0.4 μg/ml, 0.08 μg/ml and 0.016 μg/ml, respectively, mixed well with the cells in equal volume, incubated at 4° C. for 1 hour; centrifuged at 1000 rpm for 5 minutes, the supernatant was discarded; 200 μl Cell Stain Buffer (Biolegend) was added to each well to wash twice, centrifuged at 1000 rpm for 5 minutes at each time and the supernatant was discarded; 100 μl of PE-anti human Fc antibody (Biolegend) was added, incubated at 4° C. for 1 hour; washed with Cell Stain Buffer (Biolegend) twice, centrifuged at 1000 rpm for 5 minutes at each time and the supernatant was discarded. 300 μl Cell Stain Buffer was added to resuspend the cells, and detected by BD FACS Jazz flow cytometry analyzer.

[7] = target: T1, human Claudin18.2 (CLDN18.2), full …; test: cell-based or functional assay; remark: listed apart in the source
[8] = target: T3, antigen protein Claudin18.2-His (human, UniProt P56856-2 1-261, limits assumed); test: BLI (Fortebio Octet RED96), antibody on AHC sensor, Claudin18.2-His in solution, 37 °C
T3 construct: also called CLDN18.2 protein
Method: Next, antibodies were immobilized by the AHC sensor, and then combined with different concentrations of antigens, and determination of the affinity was performed according to the manual of Octet RED96.

[9] = target: T1, human Claudin18.2 (CLDN18.2), full …; test: FACS on NUGC4 cells; remark: listed apart in the source
Excerpt: (§3) Human gastric cancer cells NUGC4 and stably transfected cells CHO-K1-CLDN18.1 (prepared in Example 5) were used respectively, to verify the specificity and affinity of the anti-CLDN18.2 antibodies above at the cellular level by FAGS technology. After antibody affinity maturation and screening in vitro, each antibody can bind to the CLDN18.2 target on NUGC4 cells, but not to CHO-K1-CLDN18.1 cells, as compared with the original 3CHI antibody.

[10] = target: T1, human Claudin18.2 (CLDN18.2), full …; test: FACS on CHO-K1-CLDN18.2 cells, Graphpad fit
Method: as §2, with “analyzer. […]” for “analyzer.”

[11] = target: T2, human Claudin18.1 (CLDN18.1), full …; test: FACS on CHO-K1-CLDN18.1 cells
Excerpt: as §3

[12] = target: T1, human Claudin18.2 (CLDN18.2), full …; test: FACS on CHO-K1-CLDN18.2 cells, relative Kd from Graphpad fit
Method: as §2, with “analyzer. […]” for “analyzer.”

[13] = target: T1, human Claudin18.2 (CLDN18.2), full …; test: cell-based or functional assay; remark: listed apart in the source
[14] = target: T3, antigen protein Claudin18.2-His; test: BLI (Fortebio Octet RED96), antibody on AHC sensor, CLDN18.2 protein in solution, 37 °C
Method: Another method is to verify the affinity of the humanized antibody above at the protein level. The antibody was immobilized by the AHC sensor, and combined with different concentrations of antigens, and affinity determination was performed according to the manual of Octet RED96.

B1: Hu330-1-5M (antibody, human IgG1, kappa)
heavy: EVQLVESGGGLVQPGGSLRLSCAASGFGFSDYGMAWVRQAPGKGLEWVSFISNSAYSIYYADTVTGRFTISRDNAKNSLYLQMNSLRAEDTAVYYCARLGRGNSFAYWGQGTLVTVSSASTKGPSVFPLAPSSKSTSGGTAALGCLVKDYFPEPVTVSWNSGALTSGVHTFPAVLQSSGLYSLSSVVTVPSSSLGTQTYICNVNHKPSNTKVDKKVEPKSCDKTHTCPPCPAPELLGGPSVFLLPPKPKDTLMISRTPEVTCVVVDVSHEDPEVKFNWYVDGVEVHNAKTKPPEEQYNSTLRVVSILTVLHQDWLNGKEYKCKVSNKALPAPIEKTISKAKGQPREPQVYTLPPSRDELTKNQVSLTCLVKGFYPSDIAVEWESNGQPENNYKTTPLVLDSDGSFFLYSKLTVDKSRWQQGNVFSCSVMHEALHNHYTQKSLSLSPGK
light: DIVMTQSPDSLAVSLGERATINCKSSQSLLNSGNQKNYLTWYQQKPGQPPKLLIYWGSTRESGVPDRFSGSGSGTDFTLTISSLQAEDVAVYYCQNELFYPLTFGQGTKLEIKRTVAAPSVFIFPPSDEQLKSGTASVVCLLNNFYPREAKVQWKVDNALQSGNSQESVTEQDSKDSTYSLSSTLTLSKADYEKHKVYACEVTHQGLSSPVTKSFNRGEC
notes: also called Fc mutant of the humanized antibody; Fc-mutated humanized antibody
fold increase of binding activity over IMAB362-similar-hG1 [1]: 15 fold
EC50 [2]: 0.76 nM
Top (%) [2]: 92.4%
ADCC activity by luciferase labeling, EC50 [3]: 0.17 nM
ADCC activity by luciferase labeling, Top [3]: 100000
ADCC cytotoxicity by LDH method, PBMC effectors, EC50 [4]: 0.31 nM

B2: IMAB362-similar-hG1 (antibody, human IgG1, kappa)
heavy: not shown
light: DIVMTQSPSSLTVTAGEKVTMSCKSSQSLLNSGNQKNYLTWYQQKPGQPPKLLIYWASTRESGVPDRFTGSGSGTDFTLTISSVQAEDLAVYYCQNDYSYPFTFGSGTKLEIKRTVAAPSVFIFPPSDEQLKSGTASVVCLLNNFYPREAKVQWKVDNALQSGNSQESVTEQDSKDSTYSLSSTLTLSKADYEKHKVYACEVTHQGLSSPVTKSFNRGEC
notes: Human IgG1/kappa format; also called positive control antibody; positive antibody
EC50 [5]: 0.09 nM
binding result [6]: no binding
in-vitro ADCC activity, Jurkat-CD16A/NF luciferase reporter, EC50 [7]: 0.72 nM
in-vitro ADCC activity, Jurkat-CD16A/NF luciferase reporter, Top [7]: 216000
Kd [8]: 7.14 nM
koff [8]: 0.000399 s⁻¹
kon [8]: 55900 M⁻¹ s⁻¹
EC50 [2]: 9.78 nM
Top (%) [2]: 58.8%
MFI (CLDN18.2) [9]: 2180 MFI
ADCC activity by luciferase labeling, EC50 [3]: 1.49 nM
ADCC activity by luciferase labeling, Top [3]: 89600
Bmax (MFI) [10]: 8220 MFI
MFI (CLDN18.1) [11]: 59 MFI
Kd [12]: 28.7 nM
ADCC activity by luciferase labeling, EC50 [13]: 0.69 nM
ADCC activity by luciferase labeling, Top [13]: 63600
ADCC cytotoxicity by LDH method, PBMC effectors, EC50 [4]: 2.47 nM
Kd [14]: 9.44 nM
koff [14]: 0.00222 s⁻¹
kon [14]: 235000 M⁻¹ s⁻¹
